Values quoted from earlier work in paper PMC5141497.
Like-named read-outs stand apart in the source and are kept apart here.

Experiments:
[1] = target: Did2 MIM1 (Saccharomyces cerevisiae) (UniProt P69771)
[2] = target: Vps2 MIM1 (Saccharomyces cerevisiae) (UniProt P36108)
[3] = target: Did2 MIM1 (Saccharomyces cerevisiae) (UniProt P69771); remark: listed apart in the source

Chain of Did2 MIM1 (Saccharomyces cerevisiae) (P69771 176-204): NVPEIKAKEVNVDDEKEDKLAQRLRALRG
Chain of Vps4 MIT (P52917 1-83): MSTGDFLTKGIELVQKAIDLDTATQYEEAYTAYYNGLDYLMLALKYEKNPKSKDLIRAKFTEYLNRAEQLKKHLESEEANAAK
Chain of Ist1 NTD (P53843 1-193): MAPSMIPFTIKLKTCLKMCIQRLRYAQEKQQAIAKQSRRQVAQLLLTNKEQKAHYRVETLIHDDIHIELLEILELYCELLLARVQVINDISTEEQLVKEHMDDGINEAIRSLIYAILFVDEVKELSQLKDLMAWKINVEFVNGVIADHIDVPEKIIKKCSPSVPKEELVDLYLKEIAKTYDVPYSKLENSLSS
Chain of Vps2 MIM1 (Saccharomyces cerevisiae) (P36108 183-232): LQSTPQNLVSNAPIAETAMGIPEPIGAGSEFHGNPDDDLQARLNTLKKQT

Kd [1] | Kd [2] | Kd [3] | Substance
39 µM | 28 µM | – | Vps4 MIT (from UniProt P52917)
– | – | 1 µM | Ist1 NTD (from UniProt P53843)
